Results reported in patent publication US20190194309A1 (AGENCY FOR SCIENCE TECHNOLOGY AND RESEARCH, published 2019).

Target: T1, Macrophage stimulating protein receptor (RON - Recepteur d' Origine Nantais), human (human, UniProt Q04912 25-1400)
T1 construct: whole, on cells; Endogenous RON of human cancer cell lines (HCT116, HT29, T47D and others) or RON transfected into H1299 cells; In Western blots and immunoprecipitations it comes from cell lysates; also called human RON receptor tyrosine kinase; MST1R
Experiment: immunofluorescence on PFA fixed HCT116 cells
Experimental: Cells were stained with DAPI for nuclear visualization and anti-mouse conjugate to 488 was used as a secondary mouse antibody.
The 4% paraformaldehyde fixed HCT116 and TKO cells were subjected to permeabilization with 0.4% Triton X-100 for 20 minutes. After rinsing with PBS, cells were blocked with 5% BSA in PBSTritonX (PBSTX) for 20 min, followed by overnight incubation in hybridoma supernatant at 4° C. IgGs were detected using 1:1000 […] Alexaflor 488 Donkey anti-mouse IgG conjugated (Life technologies) in PBSTX with 1% BSA. Subsequently, cells were counterstained with DAPI, and viewed with Incell Analyzer (GE Healthcare).

B1: 7G8 (antibody, V domains shown)
VH: EVQLEQSGGGLVQPGGSLKLSCAASGFTFNTYTMSWVRQTPEKRLEWVAYISNGGGSTYYPDTVKGRFTISRDNAKNTLYLQMSSLKSEDTAMYYCARGYRYAAMDYWGQGTSVTVSS
VL: DIVMTQTTATLSVTPGDGVSLSCRASQSINNNLHWYQQKSHESPRLLIKFASQSISGIPSRFSGSGSGTDFTLSINSVETEDFGMYFCQQSNSWPLTFGAGTKLELK
notes: Mouse monoclonal antibody from a hybridoma (Balb/c mice immunised with truncated human RON-GST); kappa light chain; Tested as hybridoma supernatant or purified mAb; also called mAb 7G8; anti-RON mouse mAb 7G8
binding result: binds
